Patent US20220033505A1 (Janssen / Centocor, published 2022)

B1: HC3B230 (CD3B219-LH-scFv-Fc x MHGB732-Fab-Fc) (bispecific antibody, human IgG1, kappa, L234A L235A)
scFv: QTVVTQEPSLTVSPGGTVTLTCRSSTGAVTTSNYANWVQQKPGQAPRGLIGGTNKRAPGTPARFSGSLLGGKAALTLSGVQPEDEAEYYCALWYSNLWVFGGGTKLTVLGGSEGKSSGSGSESKSTGGSEVQLVESGGGLVQPGGSLRLSCAASGFTFNTYAMNWVRQAPGKGLEWVARIRSKYNNYATYYAASVKGRFTISRDDSKNSLYLQMNSLKTEDTAVYYCVRHGNFGNSYVSWFAYWGQGTLVTVSSEPKSSDKTHTCPPCPAPEAAGGPSVFLFPPKPKDTLMISRTPEVTCVVVSVSHEDPEVKFNWYVDGVEVHNAKTKPREEQYNSTYRVVSVLTVLHQDWLNGKEYKCKVSNKALPAPIEKTISKAKGQPREPQVYVYPPSREEMTKNQVSLTCLVKGFYPSDIAVEWESNGQPENNYKTTPPVLDSDGSFALVSKLTVDKSRWQQGNVFSCSVMHEALHNHYTQKSLSLSPG
heavy: QVQLQQSGPGLVKPSQTLSLTCAISGDSVSSNSAAWNWIRQSPSRGLEWLGRTYYRSKWYNDYAVSVKSRITINPDTSKNQISLQLNSVTPEDTAVYYCAGDRRYGIVGLPFAYWGQGTLVTVSSASTKGPSVFPLAPSSKSTSGGTAALGCLVKDYFPEPVTVSWNSGALTSGVHTFPAVLQSSGLYSLSSVVTVPSSSLGTQTYICNVNHKPSNTKVDKKVEPKSCDKTHTCPPCPAPEAAGGPSVFLFPPKPKDTLMISRTPEVTCVVVSVSHEDPEVKFNWYVDGVEVHNAKTKPREEQYNSTYRVVSVLTVLHQDWLNGKEYKCKVSNKALPAPIEKTISKAKGQPREPQVYVLPPSREEMTKNQVSLLCLVKGFYPSDIAVEWESNGQPENNYLTWPPVLDSDGSFFLYSKLTVDKSRWQQGNVFSCSVMHEALHNHYTQKSLSLSPG
light: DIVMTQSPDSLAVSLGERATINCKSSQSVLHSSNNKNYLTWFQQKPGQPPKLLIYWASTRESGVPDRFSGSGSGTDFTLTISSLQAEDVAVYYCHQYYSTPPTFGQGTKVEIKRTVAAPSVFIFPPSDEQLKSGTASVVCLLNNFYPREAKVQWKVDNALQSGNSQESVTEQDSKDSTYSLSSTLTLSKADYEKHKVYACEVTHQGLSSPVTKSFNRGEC
B2: HC3B125 (CD3B376-Fab-Fc x MHGB732-LH-scFv-Fc, no C-terminal Lys) (bispecific antibody, human IgG1, lambda, L234A L235A)
heavy: QVQLQQSGPRLVRPSQTLSLTCAISGDSVFNNNAAWSWIRQSPSRGLEWLGRTYYRSKWLYDYAVSVKSRITVNPDTSRNQFTLQLNSVTPEDTALYYCARGYSSSFDYWGQGTLVTVSSASTKGPSVFPLAPSSKSTSGGTAALGCLVKDYFPEPVTVSWNSGALTSGVHTFPAVLQSSGLYSLSSVVTVPSSSLGTQTYICNVNHKPSNTKVDKKVEPKSCDKTHTCPPCPAPEAAGGPSVFLFPPKPKDTLMISRTPEVTCVVVSVSHEDPEVKFNWYVDGVEVHNAKTKPREEQYNSTYRVVSVLTVLHQDWLNGKEYKCKVSNKALPAPIEKTISKAKGQPREPQVYVYPPSREEMTKNQVSLTCLVKGFYPSDIAVEWESNGQPENNYKTTPPVLDSDGSFALVSKLTVDKSRWQQGNVFSCSVMHEALHNHYTQKSLSLSPG
light: QSALTQPASVSGSPGQSITISCTGTSSNIGTYKFVSWYQQHPDKAPKVLLYEVSKRPSGVSSRFSGSKSGNTASLTISGLQAEDQADYHCVSYAGSGTLLFGGGTKLTVLGQPKAAPSVTLFPPSSEELQANKATLVCLISDFYPGAVTVAWKADSSPVKAGVETTTPSKQSNNKYAASSYLSLTPEQWKSHRSYSCQVTHEGSTVEKTVAPTECS
scFv: DIVMTQSPDSLAVSLGERATINCKSSQSVLHSSNNKNYLTWFQQKPGQPPKLLIYWASTRESGVPDRFSGSGSGTDFTLTISSLQAEDVAVYYCHQYYSTPPTFGQGTKVEIKGGSEGKSSGSGSESKSTGGSQVQLQQSGPGLVKPSQTLSLTCAISGDSVSSNSAAWNWIRQSPSRGLEWLGRTYYRSKWYNDYAVSVKSRITINPDTSKNQISLQLNSVTPEDTAVYYCAGDRRYGIVGLPFAYWGQGTLVTVSSEPKSSDKTHTCPPCPAPEAAGGPSVFLFPPKPKDTLMISRTPEVTCVVVSVSHEDPEVKFNWYVDGVEVHNAKTKPREEQYNSTYRVVSVLTVLHQDWLNGKEYKCKVSNKALPAPIEKTISKAKGQPREPQVYVLPPSREEMTKNQVSLLCLVKGFYPSDIAVEWESNGQPENNYLTWPPVLDSDGSFFLYSKLTVDKSRWQQGNVFSCSVMHEALHNHYTQKSLSLSPG
B3: HC3B216 (CD3B376-Fab-Fc x MHGB737-scFv-Fc) (bispecific antibody, human IgG1, lambda, L234A L235A)
heavy: QVQLQQSGPRLVRPSQTLSLTCAISGDSVFNNNAAWSWIRQSPSRGLEWLGRTYYRSKWLYDYAVSVKSRITVNPDTSRNQFTLQLNSVTPEDTALYYCARGYSSSFDYWGQGTLVTVSSASTKGPSVFPLAPSSKSTSGGTAALGCLVKDYFPEPVTVSWNSGALTSGVHTFPAVLQSSGLYSLSSVVTVPSSSLGTQTYICNVNHKPSNTKVDKKVEPKSCDKTHTCPPCPAPEAAGGPSVFLFPPKPKDTLMISRTPEVTCVVVSVSHEDPEVKFNWYVDGVEVHNAKTKPREEQYNSTYRVVSVLTVLHQDWLNGKEYKCKVSNKALPAPIEKTISKAKGQPREPQVYVYPPSREEMTKNQVSLTCLVKGFYPSDIAVEWESNGQPENNYKTTPPVLDSDGSFALVSKLTVDKSRWQQGNVFSCSVMHEALHNHYTQKSLSLSPGK
light: B2 light
scFv: not shown
B4: HC3B123 (CD3W246-Fab-Fc x MHGB732-LH-scFv-Fc) (bispecific antibody, human IgG1, kappa, L234A L235A)
heavy: EVQLVESGGGLVKPGGSLRLSCAASGFTFSRYNMNWVRQAPGKGLEWVSSISTSSNYIYYADSVKGRFTFSRDNAKNSLDLQMSGLRAEDTAIYYCTRGWGPFDYWGQGTLVTVSSASTKGPSVFPLAPSSKSTSGGTAALGCLVKDYFPEPVTVSWNSGALTSGVHTFPAVLQSSGLYSLSSVVTVPSSSLGTQTYICNVNHKPSNTKVDKKVEPKSCDKTHTCPPCPAPEAAGGPSVFLFPPKPKDTLMISRTPEVTCVVVSVSHEDPEVKFNWYVDGVEVHNAKTKPREEQYNSTYRVVSVLTVLHQDWLNGKEYKCKVSNKALPAPIEKTISKAKGQPREPQVYVYPPSREEMTKNQVSLTCLVKGFYPSDIAVEWESNGQPENNYKTTPPVLDSDGSFALVSKLTVDKSRWQQGNVFSCSVMHEALHNHYTQKSLSLSPGK
light: DIQMTQSPSSLSASVGDRVTITCRARQSIGTAIHWYQQKPGKAPKLLIKYASESISGVPSRFSGSGSGTDFTLTISSVQPEDFATYYCQQSGSWPYTFGQGTKLEIKRTVAAPSVFIFPPSDEQLKSGTASVVCLLNNFYPREAKVQWKVDNALQSGNSQESVTEQDSKDSTYSLSSTLTLSKADYEKHKVYACEVTHQGLSSPVTKSFNRGEC
scFv: B2 scFv
B5: HC3B124 (CD3B219-Fab-Fc x MHGB732-scFv-Fc) (bispecific antibody, human IgG1, lambda, L234A L235A)
heavy: EVQLVESGGGLVQPGGSLRLSCAASGFTFNTYAMNWVRQAPGKGLEWVARIRSKYNNYATYYAASVKGRFTISRDDSKNSLYLQMNSLKTEDTAVYYCVRHGNFGNSYVSWFAYWGQGTLVTVSSASTKGPSVFPLAPSSKSTSGGTAALGCLVKDYFPEPVTVSWNSGALTSGVHTFPAVLQSSGLYSLSSVVTVPSSSLGTQTYICNVNHKPSNTKVDKKVEPKSCDKTHTCPPCPAPEAAGGPSVFLFPPKPKDTLMISRTPEVTCVVVSVSHEDPEVKFNWYVDGVEVHNAKTKPREEQYNSTYRVVSVLTVLHQDWLNGKEYKCKVSNKALPAPIEKTISKAKGQPREPQVYVYPPSREEMTKNQVSLTCLVKGFYPSDIAVEWESNGQPENNYKTTPPVLDSDGSFALVSKLTVDKSRWQQGNVFSCSVMHEALHNHYTQKSLSLSPG
light: QTVVTQEPSLTVSPGGTVTLTCRSSTGAVTTSNYANWVQQKPGQAPRGLIGGTNKRAPGTPARFSGSLLGGKAALTLSGVQPEDEAEYYCALWYSNLWVFGGGTKLTVLGQPKAAPSVTLFPPSSEELQANKATLVCLISDFYPGAVTVAWKADSSPVKAGVETTTPSKQSNNKYAASSYLSLTPEQWKSHRSYSCQVTHEGSTVEKTVAPTECS
scFv: B2 scFv
B6: HC3B214 (CD3W246-Fab-Fc x MHGB737-scFv-Fc) (bispecific antibody, human IgG1, kappa, L234A L235A)
heavy: B4 heavy
light: B4 light
scFv: not shown
B7: MHGB738 (GL optimized B688) (antibody, human IgG1, kappa, V domains shown)
VH: QVQLQQSGPGLVKPSQTLSLTCAISGDSVSSNRAAWNWIRQSPSRGLEWLGRTYYRSKWYNDYAVSVKSRITINPDTSKNQISLQLNSVTPEDTAVYYCARVRPGIPFDYWGQGTPVTVSS
VL: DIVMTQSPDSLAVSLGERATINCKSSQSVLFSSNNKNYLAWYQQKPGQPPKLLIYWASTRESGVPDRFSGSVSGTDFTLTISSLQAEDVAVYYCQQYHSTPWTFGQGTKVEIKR
notes: IgG1 mAb
B8: MHGB668 (antibody, human IgG1, kappa, V domains shown)
VH: QVQLQQSGPGLVKPSQTLSLTCAISGDSVSNNSAAWNWIRQSPSRGLEWLGRTYYRSKWYNDYAVSVKSRITINPDTSKNQFSLQLNSVTPEDTAVYYCARYGSGTLLFDYWGQGTLVTVSS
VL: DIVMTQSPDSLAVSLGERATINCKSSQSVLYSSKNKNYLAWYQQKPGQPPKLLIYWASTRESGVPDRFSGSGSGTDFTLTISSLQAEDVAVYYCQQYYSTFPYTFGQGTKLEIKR
notes: IgG1 mAb
B9: MHGB665/MHGB732 (one printed row for both names), IgG1 mAb (antibody, V domains shown)
VH: QVQLQQSGPGLVKPSQTLSLTCAISGDSVSSNSAAWNWIRQSPSRGLEWLGRTYYRSKWYNDYAVSVKSRITINPDTSKNQISLQLNSVTPEDTAVYYCAGDRRYGIVGLPFAYWGQGTLVTVSS
VL: not shown
notes: tested as IgG1 mAb
B10: MHGB687 (antibody, human IgG1, kappa, V domains shown)
VH: QLQLQESGPGLVKPSETLSLMCTVSGGSITSSSYYWGWIRQPPGKGLEWIGNIYYSGTTYYNPSLKSRVTISVDTSKNQFSLKLSSVTAADTAVYYCAAGARDFDSWGQGSLVTVSS
VL: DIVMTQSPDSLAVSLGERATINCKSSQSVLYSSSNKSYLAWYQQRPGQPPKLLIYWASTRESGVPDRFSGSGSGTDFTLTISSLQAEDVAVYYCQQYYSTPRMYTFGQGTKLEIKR
notes: IgG1 mAb

Key:
[1] = target: HLA-G on NCI-H2009-b2m target cells (human, UniProt P17693 25-338); test: cell-based or functional assay
[2] = target: T1, MHGW8 (B2m-3(G4S)-HLA-G1-G4S-Avi), soluble HLA-G1 extracellular domain (human, biotinylated (Avi tag) in the ligand blocking assay); test: competition, flow cytometry: antibody titrated against MHGW8-dextramer binding to ILT2 on HEK293T cells (competitor ILT2)
T1 construct: also called HLA-G (MHGW8); recombinant biotinylated HLA-G1 (MHGW8)
Description: (§1) Cells were added (25,000 cells) and incubated for 30 min at 4° C. […] The resuspended mixture was analyzed for fluorescence signal by flow cytometry using an Intellicyt® iQue Screener Plus.

[3] = target: T1, MHGW8 (B2m-3(G4S)-HLA-G1-G4S-Avi), …; test: competition, flow cytometry: antibody titrated against MHGW8-dextramer binding to ILT4 on HEK293T cells (competitor ILT4)
Description: as §1

[4] = target: T2, HLA-G1 on K562 cells (K562-HLA-G) (human); test: flow cytometry; IgG1 mAb on cells expressing HLA-G
T2 construct: also called cells expressing HLA-G
Description: Briefly, 1.5×10⁷ cells were washed 2 times with 1×PBS and resuspended in 7 mL of 1×PBS and incubated for 10 min. After incubation, 8 mL of fetal bovine serum (FBS) were added, cells were washed by centrifugation at 300×g for 5 min and resuspended at 1×10⁶ cells/mL in DMEM supplemented with 10% FBS. […] After incubation, 150 μL of staining buffer were added and cells were washed by centrifugation at 300×g for 5 min. Cells were resuspended in 200 μL of running buffer (staining buffer supplemented with 1 mM EDTA, 0.1% (v/v) pluronic acid) and washed by centrifugation at 300×g for 5 min. Cells were resuspended in 30 mL of running buffer and analyzed for antibody binding by flow cytometry.

Binder	Cytotoxicity, EC50 (M); T cell-mediated cytotoxicity against NCI-H2009-b2m cells, 72 hr, E:T 3:1 [1]	Geomean fluorescence signal (maximum value for binding) [4]	further results
B1	9.92e-12 M		
B2	5.65e-11 M		
B3	1.9e-09 M		
B4	3.24e-12 M		
B5	3.85e-12 M		
B6	1.38e-10 M		
B7			EC50 [2]: 0.73 nM; EC50 [3]: 0.8 nM
B8		591000	
B9		632000	
B10		528000	EC50 [3]: 1.86 nM
